Results as given in patent US20260250418A1 (BIOCYTOGEN PHARMACEUTICALS BEIJING, published 2026).

T1: monkey (Macaca fascicularis) HER3 on CHO-fasHER3 cells (monkey (Macaca fascicularis), UniProt P21860 20-643 (human entry))
T1 construct: CHO-S cells transfected with fasHER3
T1 chain: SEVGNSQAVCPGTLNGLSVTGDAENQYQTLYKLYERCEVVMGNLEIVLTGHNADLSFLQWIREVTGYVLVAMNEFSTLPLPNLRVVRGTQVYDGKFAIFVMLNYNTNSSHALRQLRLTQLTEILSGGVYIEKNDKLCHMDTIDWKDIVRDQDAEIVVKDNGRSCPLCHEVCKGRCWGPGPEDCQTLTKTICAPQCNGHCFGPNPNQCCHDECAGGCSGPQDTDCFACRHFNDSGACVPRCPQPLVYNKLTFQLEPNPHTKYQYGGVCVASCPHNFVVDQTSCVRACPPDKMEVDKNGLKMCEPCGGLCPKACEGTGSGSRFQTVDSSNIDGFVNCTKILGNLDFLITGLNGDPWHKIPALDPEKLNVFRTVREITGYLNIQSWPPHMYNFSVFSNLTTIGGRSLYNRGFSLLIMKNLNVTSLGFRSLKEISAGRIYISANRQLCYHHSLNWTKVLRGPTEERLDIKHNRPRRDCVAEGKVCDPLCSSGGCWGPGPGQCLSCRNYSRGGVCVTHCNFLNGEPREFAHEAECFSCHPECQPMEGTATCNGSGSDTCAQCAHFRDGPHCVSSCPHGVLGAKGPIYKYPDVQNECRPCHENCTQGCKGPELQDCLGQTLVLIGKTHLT

B1: anti-HER3/MET bispecific antibody 1C5-8D9 (bispecific antibody, V domains shown)
VH 1: QVQLVESGGGVVQPGKSLRLSCAASGFTFSRSGMHWVRQAPGKGLEWVALISFDGSNKYYADSVKGRFTISRDNSKNTLNLQMNSLRAEDTAVYYCAKGGFGVVIYDAFDIWGHGTMVTVSS
VH 2: QVQLQESGPGLVKPSETLSLTCTVSGGSISGHYWSWIRQSPGKGLEWIGYITYSGSTNYNPSLKSRVTISVDTSKNQFSLKLSSVTAADTAVYYCGTIAVAGRVYYYGVDVWGRGTTVTVSS
VL: not shown
B2: anti-HER3/MET bispecific antibody 3E1-8H10 (bispecific antibody, V domains shown)
VH 1: EVQLVQSGPVLAKPTETLTLTCTVSGFSLSNIRMGVSWIRQPPGKALEWLAHIFSNDDKSYSPSLKNRLTISKDTSKSQVVLTMTTMDPMDTATYYCTRMKYSGGPFDYWGQGTLVTVSS
VH 2: QVQLQQWGAGLLKPSETLSLTCAVYGGSFSGYYWTWIRQPPGKGLEWIGESNHGGSTNFNPSLKSRVTISVDTSKNHFSLKLSPVTAADTAVYYCTRGGTIFGLKDAFDIWGQGTMVTVSS
VL: not shown
B3: anti-HER3/MET bispecific antibody 1B2-8H10 (bispecific antibody, V domains shown)
VH 1: QVQLVQSGPVLVKPTETLTLTCTVSTFSLSNARMGVSWIRQPPGKALEWLAHIFSNDDKSYSPSLKSRLTISKDTSKTQVVLTMTNMDPVDTATYYCSRMRYSGGPFDYWGQGSLVTVSS
VH 2: B2 VH 2
VL: not shown
B4: anti-HER3/MET bispecific antibody 1C5-8H10 (bispecific antibody, V domains shown)
VH 1: B1 VH 1
VH 2: B2 VH 2
VL: not shown
B5: anti-HER3/MET bispecific antibody 1C5-2F11 (bispecific antibody, V domains shown)
VH 1: B1 VH 1
VH 2: EVQLVESGPGLVKPSETLSLTCTVSGGSISSNYWSWIRQPPGKGLEWIGYIYHSGSTNYNPSLKSRVTISVDTSKNQFSLKLSSVTAADTAVYFCARGPVSIFGVVKYIDLWGRGTLVTVSS
VL: not shown

Columns and labels:
[1] = target: T1, monkey (Macaca fascicularis) HER3 on …; assay: flow cytometry, transfected CHO cells
Procedure: (§1) Specifically, CHO-hHER3 cells, CHO-fasHER3 cells, NIH3T3-hMET cells or NIH3T3-fasMET cells were transferred to a 96-well plate at a density of 5×10⁴ cells/well respectively. The antibodies were added to the 96-well plate, and incubated at 4° C. for 30 min.

[2] = target: T2, human HER3 on CHO-hHER3 cells (human, UniProt P21860 20-643); assay: flow cytometry, transfected CHO cells
T2 construct: CHO-S cells transfected with hHER3
Procedure: as §1

[3] = target: T3, human MET on NIH3T3-hMET cells (human, UniProt P08581 25-1390); assay: flow cytometry, transfected NIH3T3 cells
T3 construct: NIH3T3 cells transfected with a plasmid expressing hMET
T3 sequence (P08581 25-1390 limits assumed): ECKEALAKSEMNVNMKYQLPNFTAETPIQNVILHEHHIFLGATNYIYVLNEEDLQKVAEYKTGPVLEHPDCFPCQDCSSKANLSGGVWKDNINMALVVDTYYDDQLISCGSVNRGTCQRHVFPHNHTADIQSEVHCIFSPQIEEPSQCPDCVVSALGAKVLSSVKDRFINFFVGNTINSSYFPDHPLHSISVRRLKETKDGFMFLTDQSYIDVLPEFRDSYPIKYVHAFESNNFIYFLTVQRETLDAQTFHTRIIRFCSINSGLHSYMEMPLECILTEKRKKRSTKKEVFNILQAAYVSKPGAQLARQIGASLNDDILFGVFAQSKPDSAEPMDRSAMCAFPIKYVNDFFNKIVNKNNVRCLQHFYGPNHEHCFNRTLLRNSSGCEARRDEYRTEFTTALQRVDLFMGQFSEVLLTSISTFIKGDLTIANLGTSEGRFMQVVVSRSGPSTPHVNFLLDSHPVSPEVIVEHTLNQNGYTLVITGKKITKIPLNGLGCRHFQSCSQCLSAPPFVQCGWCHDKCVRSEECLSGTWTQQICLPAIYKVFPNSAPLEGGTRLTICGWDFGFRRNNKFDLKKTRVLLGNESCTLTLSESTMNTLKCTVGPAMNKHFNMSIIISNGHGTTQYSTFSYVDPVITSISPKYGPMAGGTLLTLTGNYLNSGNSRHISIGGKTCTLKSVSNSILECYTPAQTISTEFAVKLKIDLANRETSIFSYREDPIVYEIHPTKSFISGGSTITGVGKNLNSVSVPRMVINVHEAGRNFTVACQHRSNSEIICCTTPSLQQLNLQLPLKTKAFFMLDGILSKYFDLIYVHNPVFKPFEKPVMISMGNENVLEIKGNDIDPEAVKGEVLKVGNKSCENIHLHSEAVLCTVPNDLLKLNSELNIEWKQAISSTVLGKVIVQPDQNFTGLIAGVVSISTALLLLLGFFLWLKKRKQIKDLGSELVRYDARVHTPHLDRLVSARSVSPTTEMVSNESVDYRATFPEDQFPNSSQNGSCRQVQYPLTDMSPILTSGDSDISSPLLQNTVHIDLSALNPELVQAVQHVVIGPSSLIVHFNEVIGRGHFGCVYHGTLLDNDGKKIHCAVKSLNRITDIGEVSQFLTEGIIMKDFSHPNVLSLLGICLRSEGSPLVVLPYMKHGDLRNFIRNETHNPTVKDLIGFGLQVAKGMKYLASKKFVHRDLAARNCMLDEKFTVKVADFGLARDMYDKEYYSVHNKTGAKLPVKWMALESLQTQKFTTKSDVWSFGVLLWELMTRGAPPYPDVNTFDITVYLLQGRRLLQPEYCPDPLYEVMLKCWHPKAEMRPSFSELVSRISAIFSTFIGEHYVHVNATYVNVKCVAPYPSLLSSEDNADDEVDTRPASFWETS
Procedure: as §1

[4] = target: T4, monkey MET on NIH3T3-fasMET cells (monkey, UniProt A0M8R7 25-1381); assay: flow cytometry, transfected NIH3T3 cells
T4 construct: NIH3T3 cells transfected with a plasmid expressing fasMET
T4 sequence (A0M8R7 25-1381 S170N/I621T limits assumed): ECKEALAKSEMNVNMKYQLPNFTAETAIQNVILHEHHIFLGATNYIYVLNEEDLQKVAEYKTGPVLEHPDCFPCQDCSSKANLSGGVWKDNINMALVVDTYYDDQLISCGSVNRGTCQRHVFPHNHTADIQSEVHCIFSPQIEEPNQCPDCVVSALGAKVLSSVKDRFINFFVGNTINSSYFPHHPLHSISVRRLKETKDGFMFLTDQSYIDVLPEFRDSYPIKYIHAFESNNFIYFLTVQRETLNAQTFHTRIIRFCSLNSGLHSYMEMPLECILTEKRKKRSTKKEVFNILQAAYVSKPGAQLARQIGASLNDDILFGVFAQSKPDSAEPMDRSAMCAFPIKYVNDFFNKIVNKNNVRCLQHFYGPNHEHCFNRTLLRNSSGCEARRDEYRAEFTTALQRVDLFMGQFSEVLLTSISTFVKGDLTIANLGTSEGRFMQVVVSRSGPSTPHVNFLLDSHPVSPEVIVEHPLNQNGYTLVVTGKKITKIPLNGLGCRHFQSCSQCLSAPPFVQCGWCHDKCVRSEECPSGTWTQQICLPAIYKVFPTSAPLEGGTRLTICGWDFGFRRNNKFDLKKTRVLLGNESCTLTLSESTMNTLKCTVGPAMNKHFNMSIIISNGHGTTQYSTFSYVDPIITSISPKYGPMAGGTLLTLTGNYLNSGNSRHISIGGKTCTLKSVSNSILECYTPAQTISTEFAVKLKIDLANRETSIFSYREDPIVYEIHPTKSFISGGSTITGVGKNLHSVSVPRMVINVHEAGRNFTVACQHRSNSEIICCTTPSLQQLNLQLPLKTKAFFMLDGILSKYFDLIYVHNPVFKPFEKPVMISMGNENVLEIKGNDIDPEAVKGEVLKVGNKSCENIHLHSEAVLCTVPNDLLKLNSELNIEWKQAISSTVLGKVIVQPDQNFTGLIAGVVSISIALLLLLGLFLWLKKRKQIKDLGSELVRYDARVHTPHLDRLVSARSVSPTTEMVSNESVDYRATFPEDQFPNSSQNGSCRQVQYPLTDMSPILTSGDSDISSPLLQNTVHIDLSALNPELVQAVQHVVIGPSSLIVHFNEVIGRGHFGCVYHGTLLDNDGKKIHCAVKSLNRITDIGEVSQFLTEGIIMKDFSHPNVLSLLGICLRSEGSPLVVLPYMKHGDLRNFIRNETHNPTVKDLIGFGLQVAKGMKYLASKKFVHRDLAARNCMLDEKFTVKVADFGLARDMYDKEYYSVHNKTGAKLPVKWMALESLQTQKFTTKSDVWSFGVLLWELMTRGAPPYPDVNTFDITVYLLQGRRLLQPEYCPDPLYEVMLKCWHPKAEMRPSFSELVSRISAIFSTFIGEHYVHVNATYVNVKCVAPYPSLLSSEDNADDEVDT
Procedure: as §1

[5] = target: T5, His-tagged human HER3 protein (hHER3, ACRO Biosystems Inc., Cat #: ER3-H5223) (human, UniProt P21860 20-643); assay: SPR, Ab captured on Protein A, antigen 400 nM
T5 construct: Bought protein; also called hHER3-His; not shown: His tag
Procedure: (§2) Purified antibodies were captured on the Protein A chip (Series S Sensor Chip Protein A) for the detection. 2 μg/mL antibodies were loaded at 10 μL/min to bind to hHER3, fasHER3, hMET or fasMET (400 and 0 nM). The flow rate was 30 μL/min, the binding and dissociation time were set to 180 s and 400 s, respectively. The chip was regenerated after the last injection of each titration with a glycine solution ([…]) at 30 μL/min for 30 seconds.

[6] = target: T6, His-tagged monkey HER3 protein (fasHER3, Sino Biological, Inc., Cat #: 90043-K08H) (monkey); assay: SPR, Ab captured on Protein A, antigen 400 nM
T6 construct: Bought protein
Procedure: as §2

[7] = target: T7, His-tagged human MET (hMET, Sino Biological, Inc., Cat #: 10692-H08H) (human, UniProt P08581 25-932); assay: SPR, Ab captured on Protein A, antigen 400 nM
T7 construct: Bought protein; not shown: His tag
T7 sequence (P08581 25-932 limits assumed): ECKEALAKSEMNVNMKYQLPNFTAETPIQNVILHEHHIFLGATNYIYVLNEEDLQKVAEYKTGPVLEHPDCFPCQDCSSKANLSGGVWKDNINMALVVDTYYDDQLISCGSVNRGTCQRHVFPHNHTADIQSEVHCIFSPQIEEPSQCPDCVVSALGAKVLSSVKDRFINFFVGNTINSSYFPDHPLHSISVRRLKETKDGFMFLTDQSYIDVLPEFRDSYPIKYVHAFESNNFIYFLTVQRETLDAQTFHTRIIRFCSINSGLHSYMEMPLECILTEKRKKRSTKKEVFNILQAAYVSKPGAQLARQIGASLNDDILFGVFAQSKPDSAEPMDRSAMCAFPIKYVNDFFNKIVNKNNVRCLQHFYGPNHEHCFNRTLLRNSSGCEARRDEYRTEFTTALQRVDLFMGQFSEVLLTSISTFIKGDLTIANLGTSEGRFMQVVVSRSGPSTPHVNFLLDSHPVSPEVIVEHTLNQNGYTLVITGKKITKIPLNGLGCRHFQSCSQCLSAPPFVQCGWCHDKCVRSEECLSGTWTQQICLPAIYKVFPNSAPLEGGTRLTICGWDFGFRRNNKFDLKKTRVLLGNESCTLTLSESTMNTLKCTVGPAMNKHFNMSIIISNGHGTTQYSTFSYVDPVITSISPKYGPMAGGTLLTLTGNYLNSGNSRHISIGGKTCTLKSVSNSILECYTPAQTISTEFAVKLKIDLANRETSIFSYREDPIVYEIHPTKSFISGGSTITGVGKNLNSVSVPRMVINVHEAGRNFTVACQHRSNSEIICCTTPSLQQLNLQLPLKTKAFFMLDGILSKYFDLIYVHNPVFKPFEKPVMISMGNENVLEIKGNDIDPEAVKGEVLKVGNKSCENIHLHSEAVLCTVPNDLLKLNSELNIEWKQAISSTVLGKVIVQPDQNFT
Procedure: as §2

Binder	Positive Cells [1] [%]	Positive Cells [2] [%]	Positive Cells [3] [%]	Positive Cells [4] [%]	Kd [5] [nM]	koff [5] [s⁻¹]	kon [5] [M⁻¹ s⁻¹]	Kd [6] [nM]	koff [6] [s⁻¹]	kon [6] [M⁻¹ s⁻¹]	Kd [7] [nM]	koff [7] [s⁻¹]	kon [7] [M⁻¹ s⁻¹]
B1	60.4	64.8	99.8	65.1	31.1	0.000605	19400	97	0.000671	6920	22.5	0.000531	23600
B2	66	72.1	99.7	54.6	14.5	0.00332	229000	32.2	0.00318	98700	12.7	0.00516	408000
B3	64.4	67.9	99.8	57.2	16.9	0.00265	157000	38.7	0.00263	67800	10.9	0.00626	574000
B4	58.9	67.3	99.8	54.8	28.5	0.000593	20800	81.5	0.000655	8040	12.8	0.00427	333000
B5	54.9	56	99.7	68.4	29.3	0.000548	18700	103	0.000582	5630	44.2	0.00282	63800
